According to PMC10388305, “Synthesis and Evaluation of a Monomethyl Auristatin E—Integrin αvβ6 Binding Peptide–Drug Conjugate for Tumor Targeted Drug Delivery” (Journal of Medicinal Chemistry, 2023):
Read-outs that look alike come from different tables or passages of the source.

Experiments:
Format in all cases: in vivo, mice
[1] = test system: DX3puroβ6/DX3puro and BxPC-3 xenograft tumor models; test: Biodistribution, both tumor models; details: DOTA-2 (205 nmol) 10 min prior; 4 h p.i.; both models
Protocol: (§1) Aliquots of the formulated [^64Cu]PDC-1 in isotonic 0.9% saline (4.81–5.74 MBq, 1.7–2.1 μg, 0.26–0.31 nmol, 100 μL, pH 7.2) were injected i.v. as described above. Following the conscious uptake period, the mice were anesthetized (5% isoflurane), euthanized, and dissected (n ≥ 3/model/time point [4, 24, and 48 h]; the 48 h time point also included the imaging animals sacrificed after the PET scans). Tissues were collected, washed, weighed, and radioactivity measured in a γ-counter. Calibrated, decay-corrected radioactivity was expressed as the percentage of injected dose per gram of tissue (% ID/g). Data are reported as mean ± SD. […] For in vivo blocking studies, DOTA-2 (50 mg/kg, 205 nmol, 1.4 mg in 100 μL 0.9% saline) was injected i.v. into two animals/tumor model 10 min prior to [^64Cu]PDC-1. The animals were sacrificed after 4 h, tissues collected, washed, weighed, and radioactivity measured in a γ-counter.

[2] = Biodistribution, both tumor models; details: female, athymic nude, mouse, iv, total radioactivity; for tissue uptake: all time points
Protocol: as §1

[3] = Blocking biodistribution, BxPC-3 model; details: female, athymic nude, mouse, iv, total radioactivity, 4 h p.i., DOTA-2 (50 mg/kg, 205 nmol) i.v. 10 min prior, γ-counter, mean ± SD, n = 2
Protocol: Aliquots of the formulated [^64Cu]PDC-1 in isotonic 0.9% saline (4.81–5.74 MBq, 1.7–2.1 μg, 0.26–0.31 nmol, 100 μL, pH 7.2) were injected i.v. as described above. Following the conscious uptake period, the mice were anesthetized (5% isoflurane), euthanized, and dissected (n ≥ 3/model/time point [4, 24, and 48 h]; the 48 h time point also included the imaging animals sacrificed after the PET scans). Tissues were collected, washed, weighed, and radioactivity measured in a γ-counter. Calibrated, decay-corrected radioactivity was expressed as the percentage of injected dose per gram of tissue (% ID/g). Data are reported as mean ± SD. The mean weights and standard deviation of the DX3puroβ6/DX3puro paired tumor model biodistribution mice were 24.3 ± 1.4 g at 4 h, 28.2 ± 2.9 g at 24 h, and 27.7 ± 2.6 g at 48 h. The mean weights and standard deviation of the BxPC-3 tumor model biodistribution mice were 25.1 ± 1.9 g at 4 h, 27.0 ± 1.1 g at 24 h and 27.1 ± 3.2 g at 48 h. For in vivo blocking studies, DOTA-2 (50 mg/kg, 205 nmol, 1.4 mg in 100 μL 0.9% saline) was injected i.v. into two animals/tumor model 10 min prior to [^64Cu]PDC-1. The animals were sacrificed after 4 h, tissues collected, washed, weighed, and radioactivity measured in a γ-counter. The mean weights and standard deviation for the blocking mice were 24.6 ± 0 and 27.9 ± 0.3 g for the DX3puroβ6/DX3puro paired and BxPC-3 tumor models, respectively.
Blocking biodistribution data of [64Cu]PDC-1 in paired DX3puroβ6/DX3puro and BxPC-3 tumor models.
Tumor Model DX3puroβ6/DX3puro BxPC-3
Table S6. Blocking biodistribution data of [ 64Cu]PDC-1 in paired DX3puroβ6/DX3puro and BxPC-3 tumor
models. Tissue uptake is expressed as the mean of the percentage of injected dose per gram of tissue ±
SD (n = 2/model, n/a = not applicable. P = 0.53 for DX3puroβ6 vs. DX3puro; P = 0.52 for BxPC-3 vs.

## CC[C@H](C)[C@@H]([C@@H](CC(=O)N1CCC[C@H]1[C@H](OC)[C@@H](C)C(=O)N[C@H](C)[C@@H](O)c1ccccc1)OC)N(C)C(=O)[C@@H](NC(=O)[C@H](C(C)C)N(C)C(=O)OCc1ccc(NC(=O)[C@H](CCCNC(N)=O)NC(=O)[C@@H](NC(=O)CCOCCOCCNC(=O)CCN2C(=O)CC(SC[C@H](NC(=O)CN3CCN(CC(=O)O)CCN(CC(=O)O)CCN(CC(=O)O)CC3)C(=O)NCCOCCOCCOCCOCCOCCOCCOCCOCCOCCOCCOCCOCCOCCOCCOCCOCCOCCOCCOCCOCCOCCOCCOCCOCCOCCOCCOCCOCCC(=O)N[C@@H](CC(N)=O)C(=O)N[C@@H](C)C(=O)N[C@H](C(=O)N3CCC[C@H]3C(=O)N[C@@H](CC(N)=O)C(=O)N[C@@H](CC(C)C)C(=O)N[C@@H](CCCNC(=N)N)C(=O)NCC(=O)N[C@@H](CC(=O)O)C(=O)N[C@@H](CC(C)C)C(=O)N[C@@H](CCC(N)=O)C(=O)N[C@H](C(=O)N[C@@H](CC(C)C)C(=O)N[C@@H](C)C(=O)N[C@@H](CCC(N)=O)C(=O)N[C@@H](CCCNC(=N)N)C(=O)N[C@H](C(=O)N[C@@H](C)C(=O)N[C@@H](CCCNC(=N)N)C(=O)N[C@H](C(=O)NCCOCCOCCOCCOCCOCCOCCOCCOCCOCCOCCOCCOCCOCCOCCOCCOCCOCCOCCOCCOCCOCCOCCOCCOCCOCCOCCOCCOCCC(N)=O)[C@@H](C)O)C(C)C)C(C)C)C(C)C)C2=O)C(C)C)cc1)C(C)C (stereo partly drawn) [[^64Cu]PDC-1, metal not drawn]
[1]
  Reduction of uptake in the αvβ6 (+) tumors by blocking: 87–91%
[2]; faeces, 4 h, read-out: Fecal matter
  excreta dose per gram or mL at 4 h: 12 %ID/g
[2]; faeces, 48 h, read-out: Fecal matter
  excreta dose per gram or mL at 48 h: 1.5 %ID/g
[2]; kidney, 4 h, both models, read-out: Kidney uptake
  tissue uptake at 4 h: 50 to 64 %ID/g
[2]; kidney, 48 h, both models, read-out: Kidney uptake
  tissue uptake at 48 h: ≤ 25 %ID/g
[2]; large intestines, 4 h, read-out: Large intestines uptake
  tissue uptake at 4 h: 6 %ID/g
[2]; large intestines, 48 h, read-out: Large intestines uptake
  tissue uptake at 48 h: 3 %ID/g
[2]; muscle, read-out: Muscle uptake
  tissue uptake: ≤ 0.9 %ID/g
[2]; pancreas, read-out: Pancreas uptake
  tissue uptake: ≤ 0.5 %ID/g
[2]; small intestines, 4 h, read-out: Small intestines uptake
  tissue uptake at 4 h: 4 to 5 %ID/g
[2]; stomach, 4 h, read-out: Stomach uptake
  tissue uptake at 4 h: 9 %ID/g
[3]; BxPC-3 (αvβ6 +) tumor, read-out: Tumor (αvβ6 +) BxPC-3 uptake, blocked
  tissue uptake at 4 h: 0.61 ± 0.05 %ID/g
[3]; blood, read-out: Blood uptake, blocked
  tissue uptake at 4 h: 0.1 ± 0.02 %ID/g
[3]; bone, read-out: Bone uptake, blocked
  tissue uptake at 4 h: 0.14 ± 0.03 %ID/g
[3]; brain, read-out: Brain uptake, blocked
  tissue uptake at 4 h: 0.01 ± 0.01 %ID/g
[3]; gall bladder, read-out: Gall Bladder uptake, blocked
  tissue uptake at 4 h: 0.94 ± 0.35 %ID/g
[3]; heart, read-out: Heart uptake, blocked
  tissue uptake at 4 h: 0.21 ± 0.06 %ID/g
[3]; kidney, read-out: Kidney uptake, blocked
  tissue uptake at 4 h: 25.7 ± 2.55 %ID/g
[3]; large intestines, read-out: Large Intestines uptake, blocked
  tissue uptake at 4 h: 0.47 ± 0.08 %ID/g
[3]; liver, read-out: Liver uptake, blocked
  tissue uptake at 4 h: 1.01 ± 0.16 %ID/g
[3]; lung, read-out: Lung uptake, blocked
  tissue uptake at 4 h: 0.51 ± 0.16 %ID/g
[3]; muscle, read-out: Muscle uptake, blocked
  tissue uptake at 4 h: 0.07 ± 0.01 %ID/g
[3]; pancreas, read-out: Pancreas uptake, blocked
  tissue uptake at 4 h: 0.12 ± 0.01 %ID/g
[3]; skin, read-out: Skin uptake, blocked
  tissue uptake at 4 h: 0.31 ± 0.02 %ID/g
[3]; small intestines, read-out: Small Intestines uptake, blocked
  tissue uptake at 4 h: 0.51 ± 0.09 %ID/g
[3]; spleen, read-out: Spleen uptake, blocked
  tissue uptake at 4 h: 0.22 ± 0.03 %ID/g
[3]; stomach, read-out: Stomach uptake, blocked
  tissue uptake at 4 h: 0.38 ± 0.04 %ID/g
